According to IntAct's records for PubMed 21575865:

B1: Transcriptional regulator ERG (Homo sapiens), P11308-1 (parent)
chain: MIQTVPDPAAHIKEALSVVSEDQSLFECAYGTPHLAKTEMTASSSSDYGQTSKMSPRVPQQDWLSQPPARVTIKMECNPSQVNGSRNSPDECSVAKGGKMVGSPDTVGMNYGSYMEEKHMPPPNMTTNERRVIVPADPTLWSTDHVRQWLEWAVKEYGLPDVNILLFQNIDGKELCKMTKDDFQRLTPSYNADILLSHLHYLRETPLPHLTSDDVDKALQNSPRLMHARNTDLPYEPPRRSAWTGHGHPTPQSKAAQPSPSTVPKTEDQRPQLDPYQILGPTSSRLANPGSGQIQLWQFLLELLSDSSNSSCITWEGTNGEFKMTDPDEVARRWGERKSKPNMNYDKLSRALRYYYDKNIMTKVHGKRYAYKFDFHGIAQALQPHPPESSLYKYPSDLPYMGSYHAHPQKMNFVAPHPPALPVTSSSFFAAPNPYWNSPTGGIYPNTRLPTSHMPSHLGTYY

Variants of: B1
Conditions: with prkdc_human PRKDC

Variant | effect of a mutation on the interaction
MIQTVPDPAAHIKEALSVVSEDQSLFECAYGTPHLAKTEMTASSSSDYGQTSKMSPRVPQQDWLSQPPARVTIKMECNPSQVNGSRNSPDECSVAKGGKMVGSPDTVGMNYGSYMEEKHMPPPNMTTNERRVIVPADPTLWSTDHVRQWLEWAVKEYGLPDVNILLFQNIDGKELCKMTKDDFQRLTPSYNADILLSHLHYLRETPLPHLTSDDVDKALQNSPRLMHARNTDLPYEPPRRSAWTGHGHPTPQSKAAQPSPSTVPKTEDQRPQLDPYQILGPTSSRLANPGSGQIQLWQFLLELLSDSSNSSCITWEGTNGEFKMTDPDEVARRWGERKSKPNMNYDKLSRALRYYADKNIMTKVHGKRYAYKFDFHGIAQALQPHPPESSLYKYPSDLPYMGSYHAHPQKMNFVAPHPPALPVTSSSFFAAPNPYWNSPTGGIYPNTRLPTSHMPSHLGTYY [Y356A] | disrupting interaction
